Laboratory results: publication PMC7821874 (Science Advances, 2020)

T1: wild-type (WT) human CAV1α with a C-terminal 6X-Histidine tag (human), Q03135
T1 chain: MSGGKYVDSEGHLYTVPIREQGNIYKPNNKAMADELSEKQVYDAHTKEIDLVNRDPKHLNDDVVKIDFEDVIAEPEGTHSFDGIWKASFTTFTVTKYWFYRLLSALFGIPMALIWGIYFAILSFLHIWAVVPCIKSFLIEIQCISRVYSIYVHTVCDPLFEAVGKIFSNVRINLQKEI

B1: CAV1β with a 6X His-tag at the C terminus (natural protein, human, UniProt Q03135 32-178, looked up)
chain: MADELSEKQVYDAHTKEIDLVNRDPKHLNDDVVKIDFEDVIAEPEGTHSFDGIWKASFTTFTVTKYWFYRLLSALFGIPMALIWGIYFAILSFLHIWAVVPCIKSFLIEIQCISRVYSIYVHTVCDPLFEAVGKIFSNVRINLQKEI
B2: CAV1β-Venus (natural protein, human, UniProt Q03135 32-178, looked up)
chain: B1 chain
B3: wild-type (WT) human CAV1α with a C-terminal 6X-Histidine tag, Q03135 1-178 (natural protein)
chain: T1 chain

Key:
[1] = molecular target: the molecule itself; assay: negative stain electron microscopy
[2] = molecular target: T1, wild-type (WT) human CAV1α with a …; assay: negative stain electron microscopy; conditions: remark: other sources report otherwise

Binder | binding result [1] | stoichiometry N [2]
B1 | binds | 
B2 | binds | 
B3 |  | 10
